According to paper PMC11018308:

Experiments:
[1] = molecular target: cell-surface mucins (on HeLa cells); assay: flow cytometry on cells; HeLa cells treated with His-tagged mucinases in cold FACS buffer (0.5% BSA in PBS) with 2 mM EDTA and 0.1% benzonase, 30 min on ice (4 °C); EDTA prevents enzyme activity; bound enzyme detected with FITC anti-His; effective (apparent) Kd from fits of normalised MFI
[2] = molecular target: cell-surface mucins (on HeLa cells); assay: flow cytometry on cells (anti-His staining, HeLa); conditions: 30 min at 4 °C in the presence of EDTA, n = 3 biologically independent replicates, read off a plot

ddStcE^H367A (from UniProt O82882 36-898) (enzyme)
Kd [1]: 2000 nM

double deletion StcE (ΔC and ΔINS) (from UniProt O82882) Y457A
Kd ([2]; parent: est. 1300 nM): 1300 nM

StcE, zinc metalloprotease (mucinase) from Escherichia coli serotype O157:H7 (from UniProt O82882) Y457W
Kd ([2]; parent: est. 130 nM): 120 nM

ddStcE^W366A, engineered StcE (from UniProt O82882 36-898) (enzyme)
Kd [1]: 2000 nM

StcE, zinc metalloprotease (mucinase) from Escherichia coli serotype O157:H7 (from UniProt O82882) Y457A
Kd ([2]; parent: est. 130 nM): 120 nM

StcE, zinc metalloprotease (mucinase) from Escherichia coli serotype O157:H7 (from UniProt O82882) W366F
Kd ([2]; parent: est. 130 nM): 95 nM
